These are literature values, as cited in paper PMC10977282.

The series deals with DR5 (Homo sapiens) (UniProt O14763).

For OPG (from UniProt O00300), the Kd was < 400 nM.

The term Kd denotes a measure of binding affinity in units of concentration.
